This note sets out measurements from patent US8247376B2, “NGAL for reduction and amelioration of ischemic and nephrotoxic injuries” (The Trustees of Columbia University, priority 2004, dated 2012).

The test system of data set [1] is mouse model of ATN or ischemia/reperfusion injury. In words: Mouse model of ATN (30 min clamp, contralateral nephrectomy): plasma creatinine. The class given is in vivo, mice. The following applies: for protection against ATN (creatinine, FIG. 17A): mice, 30 minutes of ischemia, 10 μg protein or single dose, 15 min prior to ischemia. As to the method:
Male C57BL/6 mice (20-25 gr; Charles River) were anesthetized with intraperitoneal pentobarbital (50 mg/kg) and placed on a heating pad under a warming light to maintain 37© core body temperature. Kidneys were exposed through an abdominal section and the right kidney was either removed or its vascular pedicle and ureter ligated. The vascular pedicle of the left kidney or both kidneys was clamped by a microaneurysm clip (Kent Scientific) for 30 minutes after right nephrectomy. This period of ischemia generated reproducible renal injury but minimized mortality. During the procedure, PBS (0.5 ml) was used to dampen the peritoneum. The animal was closed with 5-0 Nylon. Saline, NGAL, retinol-loaded retinol binding protein (RBP), enterochelin, or desferroxamine mesylate (DFO) were injected into the peritoneum or subcutaneously 15 min. prior to ischemia or 1-2 hr after reperfusion.
After 6 or 24 hr of reperfusion, heparinized plasma, urine and kidney samples were obtained to measure NGAL (polyclonal 1:500), Heme oxygenase-1 (Stressgen, 1:2000), E-cadherin (BD Transduction Labs, 1:2000), N-cadherin (BD Transduction Labs, 1:3000) and GAPDH (Chemicon International, 1:3000) using immunoblots. Plasma was also used for creatinine and blood urea nitrogen colorimetric assays. Sagittal sections of the kidney were fixed in 4% formalin, or were snap frozen for mRNA and protein analysis. Paraffin-embedded sections (5 μm) were stained with hematoxylin-eosin or by an in situ kit (Fluorescein-TUNEL, Roche) for apoptotic nuclei or for total nuclei (Toprol, Molecular Probes). For cell proliferation analysis, BrdU was injected into the peritoneum 1 hour before sacrifice, and cryostat sections were stained with anti-BrdU (Roche) according to the manufacturer.

Data set [2] is described as follows: Cofactor-dependent ^55Fe binding to NGAL (10 kDa filter retention). The following applies: for inhibition of ^55Fe capture by apo-NGAL+urine: competitor: 1000-fold unlabeled iron citrate or 50-fold iron-saturated enterochelin; for retention of ^55Fe: washed on 10 kDa filter. As to the method:
The urine fraction was obtained by passing fresh urine sequentially through 10 kDa and 3 kDa membranes (YM-10 and YM-3, Amicon). The mixture was then washed three times on 10 kDa membrane (YM-10, Amicon). Iron-free enterochelin-loaded NGAL (rather than NGAL without siderophore) served as a positive control for iron capture. Ferric citrate (1 mM) or iron-loaded enterochelin (Sid:Fe, 50 μM) were used as competitors of ^55Fe binding.

Data set [3] in a line: NGAL trafficking after intraperitoneal or subcutaneous injection. Type of data set: in vivo, mice. An excerpt: (§1) Recombinant human and mouse GST-NGAL were expressed in BL21 or XL1-Blue strains of E. coli (Stratagene) with additional ferric sulfate (50 Micro Molar, Sigma-Aldrich Co.). NGAL was isolated using Glutathione Sepharose 4B beads (Amersham Biosciences), eluted by thrombin cleavage (Sigma-Aldrich Co.; St. Louis, Mo.) and then further purified by gel filtration (Superdex75, SMART system, Amersham Biosciences) and examined by Coomassie gels (Biorad). BL-21 derived NGAL was loaded with iron free or iron saturated enterochelin, a siderophore (EMC Microcollections) using a 5 fold molar excess. Unbound siderophore (0.7 KD) was removed by washing (Microcon YM-10) with PBS. To produce ^55Fe or gallium (Ga) loaded NGAL we incubated the iron-free enterochelin NGAL complex with equimolar ^55Fe (18mCi) or Ga in NaCl (150 mM) Hepes (20 mM; pH 7.4) and the complex was washed 3 times (10K filter). Iodobeads (Pierce) were used to label NGAL with ^125I and unincorporated ^125I was removed by gel filtration (PD-10 column) followed by extensive dialysis (7 kDa cut off membrane, Pierce) against PBS. Alexa-568 and fluorescein isothiocyanate (Molecular Probes) was coupled to NGAL, according to the manufacturer, and then extensively dialyzed. Protein concentration was determined by Coomassie gels in comparison with bovine serum albumin standard.
(§2) To detect delivery of NGAL to the kidney rNGAL (10 or 100 μg), Alexa 568-NGAL (100 μg), ^125I-NGAL ([…], 2×10^6 cpm), or ^55Fe loaded enterochelin-NGAL (10 μg, 1×10^6 cpm) was injected into the peritoneum and blood, urine, kidney and liver samples were obtained. NGAL was detected by immunoblot. Alexa-568 NGAL was detected by confocal microscopy (LSM Meta Detector) and NGAL mediated iron trafficking was detected by scintillation counter and by light microscopic radioautography of Epon embedded kidneys. Slides were exposed to emulsion (Polyscience) for 1 week and then developed with Microdol and counterstained with Toluidine blue. To detect lysosomes in the proximal tubule, mice were injected with Fluorescein Dextran (46 kD; 0.5 mg; Sigma) 24 hours before Alexa 568 NGAL injections. LAMP1 (Santa Cruz) was detected in cryostat sections of 4% paraformaldehyde fixed kidneys.

Data set [4] is described as follows: Distribution and radioautography of ^55Fe after ^55Fe:Sid:NGAL injection. Type of data set: in vivo, mice. The following applies: for Silver Grains (% Total): kidney radioautography; for ^55Fe recovered: one hour after 10 μg intraperitoneal.
Excerpt: as §1, §2

Entries after “also recorded” stand apart in the source; their conditions may differ. Counter-ions that a name gives are not always drawn.

With `CC(=O)N(O)CCCCCNC(=O)CCC(=O)N(O)CCCCCNC(=O)CCC(=O)N(O)CCCCCN` [DFO, desferrioxamine mesylate, reference compound], in data set [1], the “protection against ATN (creatinine, FIG. 17A)” value (“protection against ATN” below) is “failed to protect against ATN; also recorded: ineffective”.

Consider “Ferric citrate [iron citrate, reference compound]”, for which the “inhibition of ^55Fe capture by apo-NGAL+urine” value in data set [2] was “inhibited”; in data set [2] (listed as iron-citrate), “blocked”.

B1: Alexa-568 NGAL: NGAL coupled to Alexa-568 fluorescent dye (conjugate, UniProt P11672 21-200, looked up)
Neutrophil …: QDSTQNLIPAPSLLTVPLQPDFRSDQFRGRWYVVGLAGNAVQKKTEGSFTMYSTIYELQENNSYNVTSILVRDQDQGCRYWIRTFVPSSRAGQFTLGNMHRYPQVQSYNVQVATTDYNQFAMVFFRKTSENKQYFKITLYGRTKELSPELKERFTRFAKSLGLKDDNIIFSVPTDQCIDN
modifications: Alexa-568 dye
notes: NGAL coupled to Alexa-568 fluorescent dye
With B1, in data set [3] (by one hour after injection), the “localization of fluorescent NGAL in kidney” value is reported as “localized to large vesicles in the subapical domain of the cortical proximal tubule”. Moreover, in data set [3] (one hour after injecting, fluorescein-dextran the day before), the “NGAL vesicles also containing dextran (lysosomes)” value was found to be 33%.

B2: apo-NGAL:Sid:Fe: BL-21-cloned NGAL reconstituted with iron-saturated enterochelin (protein, UniProt P11672 21-200, looked up)
Neutrophil …: B1 Neutrophil …
modifications: iron-saturated enterochelin
notes: BL-21-cloned NGAL reconstituted with iron-saturated enterochelin
Take B2: the “retention of ^55Fe” value in data set [2] (in buffer) is given as “not”. The “protection against ATN” value in data set [1] is “protective effect”; in data set [1] (listed as apo-Ngal:Sid:Fe), “enhanced the protection of the kidney and blunted the rise in serum creatinine”.

B3: holo-NGAL: NGAL cloned in XL-1Blue bacteria; contains enterochelin and is iron-loaded (protein, UniProt P11672 21-200, looked up)
Neutrophil …: B1 Neutrophil …
modifications: enterochelin, iron-loaded
notes: NGAL cloned in XL-1Blue bacteria; contains enterochelin and is iron-loaded
As to B3, the figures for the “protection against ATN” value in data set [1] and in data set [1] (listed as holo-Ngal) were “rescues renal function” and “protected the kidney”, respectively.

B4: apo-NGAL: NGAL cloned in BL-21 bacteria; does not contain enterochelin (siderophore free) (protein, UniProt P80188 21-198, looked up)
Neutrophil …: QDSTSDLIPAPPLSKVPLQQNFQDNQFQGKWYVVGLAGNAILREDKDPQKMYATIYELKEDKSYNVTSVLFRKKKCDYWIRTFVPGCQPGEFTLGNIKSYPGLTSYLVRVVSTNYNQHAMVFFKKVSQNREYFKITLYGRTKELTSELKENFIRFSKSLGLPENHIVFPVPIDQCIDG
modifications: siderophore-free
B4: the “retention of ^55Fe” value in data set [2] (in buffer) was “failed to trap ^55Fe and not”; in data set [2] (with mouse urine fraction (<3,000 Da)) it was “retains ^55Fe”. The “protection against ATN” value is listed as “minimally active” in data set [1] and “reduced level of protection” in data set [1] (listed as apo-Ngal).

B5: apo-NGAL:Sid: BL-21-cloned NGAL reconstituted with iron-free enterochelin (protein, UniProt P80188 21-198, looked up)
Neutrophil …: B4 Neutrophil …
modifications: complexed with iron-free enterochelin
notes: BL-21-cloned NGAL reconstituted with iron-free enterochelin
For B5, the “retention of ^55Fe” value in data set [2] (in buffer) is given as “retained”. Further, the “protection against ATN” value was “protective effect” in data set [1]; “enhanced the protection of the kidney and blunted the rise in serum creatinine” in data set [1] (listed as apo-Ngal:Sid).

B6: ^55Fe:Sid:NGAL: iron-free enterochelin-NGAL incubated with ^55Fe at 1:1 stoichiometry (protein, UniProt P80188 21-198, looked up)
Neutrophil …: B4 Neutrophil …
modifications: enterochelin loaded with 55Fe
notes: iron-free enterochelin-NGAL incubated with ^55Fe at 1:1 stoichiometry
Consider B6, for which the “Relative SA (% grains/% point count)” value in data set [4] (Apical MB) turned out to be 2.21; in data set [4] (Basal MB), 0.59; in data set [4] (Cytosol), 1; in data set [4] (Glomerular Tuft), 0.11; in data set [4] (Interstitium) it was 0.3; in data set [4] (Lumen), 1.43. The “Relative SA (% grains/% point count)” value in data set [4] (Nucleus) is 0.56. Moreover, the “Silver Grains (% Total)” value in data set [4] (Apical MB) is given as 12.91 % Total; in data set [4] (Basal MB), 3.81 % Total; in data set [4] (Cytosol), 48.98 % Total; in data set [4] (Glomerular Tuft), 0.13 % Total; in data set [4] (Interstitium) it was 3.71 % Total; in data set [4] (Lumen) it was 26.46 % Total. Besides, the “Silver Grains (% Total)” value in data set [4] (Nucleus) came out at 4.02 % Total. Further, the “^55Fe recovered” value in data set [4] (kidney) was found to be 55%; in data set [4] (liver), 2.4%; in data set [4] (plasma), 4.3%; in data set [4] (spleen), 0.2%; in data set [4] (urine) it was 0.6%.

B7: apo-NGAL:Sid:Ga: gallium-loaded enterochelin-NGAL complex (protein, UniProt P80188 21-198, looked up)
Neutrophil …: B4 Neutrophil …
modifications: enterochelin loaded with gallium
notes: gallium-loaded enterochelin-NGAL complex
B7 gave a creatinine in data set [1] (gallium complex 15 minutes prior to ischemia) of 3.17±0.1. For the same molecule, the “protection against ATN” value in data set [1] was “ineffective”; in data set [1] (listed as apo-Ngal:Sid:Ga), “not protected”.
